Our source for the IC50 values is patent US20040072736A1 (Boehringer Ingelheim, published 2004).

The experiment concerns the target T1, human glucagon receptor (human, UniProt P47871 26-477).
T1 construct: whole, on cells; The assay used plasma membranes from stably transfected BHK-21 cells; also called cloned human glucagon receptor
The experiment in a line: competition radioligand binding; displacement of 125I-glucagon from BHK-21 membranes with the human glucagon receptor; filtration. As to the method:
Binding of peptides to the glucagon receptor was assayed in a competition binding-assay using a membrane fraction containing the cloned human glucagon receptor and radiolabeled glucagon.
For measuring competition with glucagon binding, 20 μg of the membrane suspension were incubated for 60 minutes in covered microtiter plates (Optiplate, Packard Instruments) with 50.000 cpm 125I-glucagon (Amersham Pharmacia), and one concentration of the test compound in a total volume of 100 μl. The protein-bound radioactivity is separated from unbound ligand by filtration and washing on a Multiscreen-Vakuumfiltrationsystem (Millipore) using GC/B filters (Packard) and measured after addition of 20 μl Microscint 20 in a topcount scintillation counter (Packard). The non-specific binding is defined as radioactivity bound in the presence of 1 μM glucagon (Wherl GmbH).
Background: In a radioligand displacement assay an active substance lowers the binding of a labelled ligand.

In general, IC50 refers to the concentration at which inhibition is half-maximal. Read a low IC50 as higher potency.

Bridges are numbered along the chain shown (N, C = ends).

T1 sequence (P47871 26-477): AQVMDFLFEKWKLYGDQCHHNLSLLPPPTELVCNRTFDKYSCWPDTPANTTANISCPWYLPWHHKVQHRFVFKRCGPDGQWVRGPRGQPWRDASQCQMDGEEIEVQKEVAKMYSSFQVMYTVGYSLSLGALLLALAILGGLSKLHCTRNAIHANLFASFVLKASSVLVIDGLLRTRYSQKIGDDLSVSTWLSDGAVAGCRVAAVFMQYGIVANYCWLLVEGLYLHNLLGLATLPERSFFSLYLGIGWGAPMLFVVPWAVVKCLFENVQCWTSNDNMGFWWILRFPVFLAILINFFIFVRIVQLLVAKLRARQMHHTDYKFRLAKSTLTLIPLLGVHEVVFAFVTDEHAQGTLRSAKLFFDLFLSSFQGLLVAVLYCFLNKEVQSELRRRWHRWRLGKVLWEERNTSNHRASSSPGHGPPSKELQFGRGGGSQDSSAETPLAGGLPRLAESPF

B1: bicyclic nonadecapeptide of Example 1 (SEQ ID NO. 5), free acid (R = H) (peptide)
peptide: GLPWGCPSDIPGWNTPWAC-OH
modifications: disulfide 6-19; lactam N-9
SMILES: CC[C@H](C)[C@@H]1NC(=O)[C@@H]2CC(=O)NCC(=O)N[C@@H](CC(C)C)C(=O)N3CCC[C@H]3C(=O)N[C@@H](Cc3c[nH]c4ccccc34)C(=O)NCC(=O)N[C@@H](CSSC[C@@H](C(=O)O)NC(=O)[C@H](C)NC(=O)[C@H](Cc3c[nH]c4ccccc34)NC(=O)[C@@H]3CCCN3C(=O)[C@H]([C@@H](C)O)NC(=O)[C@H](CC(N)=O)NC(=O)[C@H](Cc3c[nH]c4ccccc34)NC(=O)CNC(=O)[C@@H]3CCCN3C1=O)C(=O)N1CCC[C@H]1C(=O)N[C@@H](CO)C(=O)N2
Molecule B1 returned an IC50 of 100 nM.

B2: methyl ester of the bicyclic nonadecapeptide of Example 1 (peptide)
peptide: GLPWGCPSDIPGWNTPWAC-OMe
modifications: disulfide 6-19; lactam N-9
SMILES: CC[C@H](C)[C@@H]1NC(=O)[C@@H]2CC(=O)NCC(=O)N[C@@H](CC(C)C)C(=O)N3CCC[C@H]3C(=O)N[C@@H](Cc3c[nH]c4ccccc34)C(=O)NCC(=O)N[C@@H](CSSC[C@@H](C(=O)OC)NC(=O)[C@H](C)NC(=O)[C@H](Cc3c[nH]c4ccccc34)NC(=O)[C@@H]3CCCN3C(=O)[C@H]([C@@H](C)O)NC(=O)[C@H](CC(N)=O)NC(=O)[C@H](Cc3c[nH]c4ccccc34)NC(=O)CNC(=O)[C@@H]3CCCN3C1=O)C(=O)N1CCC[C@H]1C(=O)N[C@@H](CO)C(=O)N2
B2 displayed an IC50 of 135 nM. The IC50 values of the last two molecules are within 1.5-fold of each other.
